Results published in patent US20240218066A1, “USE OF ANTI-PD-1 ANTIBODY IN COMBINATION WITH FIRST-LINE CHEMOTHERAPY IN TREATMENT OF ADVANCED NON-SMALL CELL LUNG CANCER” (SHANGHAI JUNSHI BIOSCIENCES CO., LTD., priority 2021, published 2024).

Experiments:
[1] = tested on: patients with untreated advanced NSCLC
Protocol: (§1) This is a randomized, double-blind, placebo-controlled, multicenter, phase III clinical study for assessing the efficacy and safety of toripalimab (JS001) or placebo in combination with first-line chemotherapy in patients with untreated advanced NSCLC and exploring the population with optimal biomarker prediction.
(§2) Toripalimab 240 mg/placebo was administered by intravenous infusion once every three weeks (Q3W) in cycles of 21 days, with treatment continued until the patients met the discontinuation criteria, i.e., recorded progressive disease, unacceptable AEs, investigator-assessed unsuitability for continued treatment, withdrawal of informed consent, 2 years of JS001 treatment, or other reasons as specified in the protocol.
(§3) The selection of cisplatin or carboplatin was at the discretion of the investigator.
(§4) Safety analysis set (SS): including all patients who received at least one dose of the study drug (JS001/placebo/chemotherapeutic agent).
(§5) Safety analysis was performed in SS and crossover treatment analysis sets, where safety data from the double-blind stage of the primary study and the crossover treatment stage were analyzed separately. Safety analyses include drug exposure, compliance, adverse events, laboratory examinations, vital signs, physical examinations, electrocardiogramaminations, ECOG scores, etc.
(§6) All safety analyses were based on the SS population (464 patients), including 308 patients in the test group and 156 patients in the control group. […] The primary safety analysis results based on the SS population in the double-blind stage of the primary study are as follows:

[2] = tested on: patients with untreated advanced NSCLC; experiment: Phase III clinical study, safety analysis (SS population); conditions: SS population, test group
Protocol: as §1, §2, §3, §4, §5, §6

For “JS001: humanized IgG4 anti-PD-1 mAb with light and heavy chain amino acid sequences SEQ ID NOs: 9 and 10”, the “SAE judged by the investigator to be related to JS001: infectious pneumonia” value [1] was 1.6%, the “SAE judged by the investigator to be related to JS001: anemia” value [2] was 2.6% and the “SAE judged by the investigator to be related to JS001: immune-mediated hepatitis” value [2] was 1.0%. For the same substance, the “SAE judged by the investigator to be related to JS001: immune-mediated pneumonia” value [2] was 2.6%, the “SAE judged by the investigator to be related to JS001: interstitial lung disease” value [2] was 1.3% and the “SAE judged by the investigator to be related to JS001: leukopenia” value [2] was 1.0%. The “SAE judged by the investigator to be related to JS001: liver function abnormality” value [2] was 1.3%, the “SAE judged by the investigator to be related to JS001: neutropenia” value [2] was 1.9% and the “SAE judged by the investigator to be related to JS001: pulmonary inflammation” value [2] was 1.0%. The “SAE judged by the investigator to be related to JS001: thrombocytopenia” value [2] was 2.3%.
